Data from article PMC5593996.

Legend:
Q13148 [1] = experiment: NMR HSQC peak intensities (fraction of globular monomer); 1 mM RRM2 under oxidation with 5 mM H2O2 (2 h or 24 h); loss of monomer signals taken as conversion into oligomers and aggregate particles; standard phosphate buffer pH 6.7; conditions: other: NMR HSQC peak intensities (fraction of globular monomer)
[2] = target: second RNA-recognition motif (RRM2) of TDP-43, wild type, residues 191-265 (human) (UniProt Q13148); experiment: cross-linking; disulfide-linked oligomers on non-reducing SDS-PAGE (14% tris-glycine, Coomassie, densitometry); 1 mM protein incubated 2 h with 5 mM H2O2
Q13148 [3] = experiment: NMR HSQC peak intensities (fraction of globular monomer); reduced samples: first treated with 5 mM H2O2, then with 25 mM DTT; conditions: other: NMR HSQC peak intensities (fraction of globular monomer)
[4] = target: second RNA-recognition motif (RRM2) of TDP-43, wild type, residues 191-265 (human) (UniProt Q13148); experiment: NMR HSQC peak intensities (fraction of globular monomer); 1 mM RRM2 under oxidation with 5 mM H2O2 (2 h or 24 h); loss of monomer signals taken as conversion into oligomers and aggregate particles; standard phosphate buffer pH 6.7
[5] = target: second RNA-recognition motif (RRM2) of TDP-43, wild type, residues 191-265 (human) (UniProt Q13148); experiment: NMR HSQC peak intensities (fraction of globular monomer); reduced samples: first treated with 5 mM H2O2, then with 25 mM DTT
Q13148 [6] = experiment: dynamic light scattering + other: pulsed-field-gradient NMR diffusion; fully oxidized sample (5 mM H2O2, about 31 h); size distribution of aggregate particles fitted to both diffusion coefficients (Eq. 6), NMR on peak N265'

B1: second RNA-recognition motif (RRM2) of TDP-43, wild type, residues 191-265 (protein)
chain: MRKVFVGRCTEDMTEDELREFFSQYGDVMDVFIPKPFRAFAFVTFADDQIAQSLCGEDLIIKGISVHISNAEPKHN
For B1, which “percent of the protein in aggregate particles after 2 h with 5 mM H2O2” value (Q13148 [1]) is on record?
Its value is 60% (±4%) of the protein has been transformed into APs.

And the fraction of cross-linked protein molecules (gel densitometry, 2 h with 5 mM H2O2) [2]?
The fraction of cross-linked protein molecules (gel densitometry, 2 h with 5 mM H2O2) was 40%.

What about the “percent of protein mass still aggregated after 2 h oxidation and 3 h reduction” value (Q13148 [3]) of the same binder?
Its value is “ca. 19% of the protein by mass remains in the aggregate form”.

What about the “percent of protein mass still aggregated after 24 h oxidation and 24 h reduction” value (Q13148 [3]) of the same binder?
Its value is “ca. 40% of the protein mass in this sample remains in the aggregated state”.

What about the percent (mass fraction) left as globular monomer after 24 h with 5 mM H2O2 [4] of the same binder?
The percent (mass fraction) left as globular monomer after 24 h with 5 mM H2O2 was 4.5%.

What about the percent left as globular monomer after 2 h with 5 mM H2O2 [4] of the same binder?
Its percent left as globular monomer after 2 h with 5 mM H2O2 is 40%.

What about the percent monomer in the reduced samples [5] of the same binder?
Its percent monomer in the reduced samples is 84%.

What about the “mass fraction of the aggregate mass in all other aggregate particles” value (Q13148 [6]) of the same binder?
The value was “all other APs combined account for 83% of the aggregate mass”.

What about the “mass fraction of the aggregate mass that is disulfide-bonded dimers” value (Q13148 [6]) of the same binder?
The value was “The mass fraction of the disulfide-bonded dimers is 17%”.
